Key:
R163W hCCS (human) [1] = biological target: R163W hCCS (human) (UniProt O14618); assay: SEC-MALS; Agilent BioSEC-3 column, 20 mM Tris-HCl, 150 mM NaCl (TBS) with 1 mM DTT, 20 °C; monomer to dimer
R163W hCCS (human) [2] = biological target: R163W hCCS (human) (UniProt O14618); assay: SEC; GE Superdex 200 10/300, TBS with 1 mM DTT, 0.5 ml/min, 500 μl loaded; high concentrations (series from 26 up to 918 μM before the column); monomer to dimer
[3] = biological target: copper chaperone for SOD1 (hCCS), wild-type, zinc metalated (human) (UniProt O14618); assay: SEC; reducing conditions as above but with metal apo (zinc deficient) SOD1, mixed 1:1 with Zn-hCCS; Agilent BioSEC-3, TBS with 1 mM DTT, 20 °C
[4] = biological target: copper chaperone for SOD1 (hCCS), wild-type, zinc metalated (human) (UniProt O14618); assay: SEC-MALS; Agilent BioSEC-3 column, 20 mM Tris-HCl, 150 mM NaCl (TBS) with 1 mM DTT, 20 °C; monomer to dimer
[5] = biological target: copper chaperone for SOD1 (hCCS), wild-type, zinc metalated (human) (UniProt O14618); assay: SEC; non-reducing time course with metal apo SOD1: SOD1 reduced and desalted into oxygen purged TBS, mixed with hCCS (copper apo/zinc holo or copper(I) loaded), incubated at 20 °C (8 minutes to 20 hours), then SEC

Row | Substance | stoichiometry N (R163W hCCS (human) [1]) | stoichiometry N (R163W hCCS (human) [2]) | stoichiometry N [3] | stoichiometry N [4] | stoichiometry N [5]
1 | R163W hCCS (from UniProt O14618 1-274) (natural protein) | 2 | 2 | – | – | –
2 | copper chaperone for SOD1 (hCCS), wild-type, zinc metalated (from UniProt O14618 1-274) (natural protein) | – | – | 2 | 2 | 2

Reference: article PMC4901319
